The source of these data is article PMC9836055.

The data set deals with CC(=O)Oc1ccc([N+](=O)[O-])cc1. Nature of the data set: purified protein. Particulars: PBS, 37 °C, 0.25 mg/mL enzyme.

With “Lsa45 (Leptospiral surface adhesin of 45 kDa) (Leptospira interrogans serovar Copenhageni str. Fiocruz L1-130)”, the Km (in general, the substrate concentration at which the rate is half of its maximum) amounted to 849.3 ± 15.30 µM and the Vmax (in general, the rate approached at saturating substrate) came out at 219 µM/min.
